Source: patent US9481870B2, “Nucleic acid encoding a polypeptide having aminotransferase activity, vectors and host cells comprising the nucleic acid” (KANEKA CORPORATION, priority 2010, dated 2016)

Experiment: Optimum temperature of transamination activity
Assay type: biochemical
Procedure: The transamination activity of purified TPM was examined under the following activity assay conditions. Specifically, purified TPM was added to a substrate solution with the composition given below to a total amount of 1 mL. After 5 minutes of reaction at 30° C., 0.05 mL of 6N hydrochloric acid was added to stop the reaction. HPLC analysis was conducted under the following conditions.
Transamination activity was determined at 10° C., 20° C., 30° C., 40° C., 50° C., 60° C., and 70° C. under the same conditions above.

B1: TPM: purified aminotransferase polypeptide from Pseudomonas sp. MV37, about 50,000 molecular weight, amino acid sequence SEQ ID NO: 1 (protein, listed as Pseudomonas sp.)
chain: MNHLEKMLELDRNHLIHPHLPKSEFSRTIFARGKGCKLWDTEGREYLDATGGLWLAQIGHGREEIAEVAARQMKQLEYFTCFWDFSNERAIELAEKLARLAPGDLEMSFFTSGGSEGDDAAIKTARYYHSQRGEPKRTWILSRNNAYHGLAYGGGTATGFPELRDGMGPGLPHVAYLTQPNAYRHYYFDGQNPTDFCVSELEKMIASIGAENIAAMIAEPIMGVGGMVPPPVDYWPRMSQVLKKNGILLIFDEVVSAFGRSGHWFAAEKYGVIPDIMVTAKGISSGYIPLGAVIMSRDVADTVREGHGYPLGYTYSGHPVACAVALENLRILEDEDLINRSNHMGTYIAEQLTALRDNPCVGEVRQAGMGIGIELVTDKESRQPLPDAALVIPDIIREETGVIVRISNATNLCMSPPLTMSREEADRAVEAVCSVLSRVKPDGKV
optimum temperature (10° C. to 70° C. tested): 60 °C | Relative activity (Reaction temperature 10° C., activity at 60° C. = 100): 8 | Relative activity (Reaction temperature 20° C., activity at 60° C. = 100): 16 | Relative activity (Reaction temperature 30° C., activity at 60° C. = 100): 33 | Relative activity (Reaction temperature 40° C., activity at 60° C. = 100): 49 | Relative activity (Reaction temperature 50° C., activity at 60° C. = 100): 77 | Relative activity (Reaction temperature 60° C., designated as 100): 100 | Relative activity (Reaction temperature 70° C., activity at 60° C. = 100): 68
